Values of other authors, collected in paper PMC11581309.
Blank lines part the entries; values can stand above or below the substance they belong to.

Columns and labels:
CDH1 (Gallus gallus) = CDH1 (Gallus gallus) (UniProt P08641)
CDH1 (Mus musculus) = CDH1 (Mus musculus) (UniProt P09803)
CDH1 (Homo sapiens) = CDH1 (Homo sapiens) (UniProt P12830)
CDH2 (Gallus gallus) = CDH2 (Gallus gallus) (UniProt P10288)
CDH2 (Mus musculus) = CDH2 (Mus musculus) (UniProt P15116)
CDH2 (Homo sapiens) = CDH2 (Homo sapiens) (UniProt P19022)

Substance: CDH1 (from UniProt P12830)
Kd (CDH1 (Homo sapiens)): 217 µM

Substance: CDH2 (from UniProt P10288)
Kd (CDH2 (Gallus gallus)): 20.4 µM

Substance: CDH2 (from UniProt P19022)
Kd (CDH2 (Homo sapiens)): 22.1 µM

Other lines, results leading:

Kd (CDH1 (Gallus gallus)): 110 µM
Substance: CDH1 (from UniProt P08641)

Kd (CDH1 (Mus musculus)): 160 µM
Substance: CDH1 (from UniProt P09803)

Kd (CDH2 (Mus musculus)): 22.6 µM
Substance: CDH2 (from UniProt P15116)
